Experimental findings from patent publication US20050058645A1 (ZENYTH OPERATIONS, published 2005) are described below.

As usually defined, the IC50 is the point on the concentration scale where inhibition reaches its midpoint. A high value points to weaker potency in that assay. By Kd is commonly meant the constant that tells how readily two partners part at equilibrium. The low end stands for tighter binding, the high end for weaker binding.

The chains are these.
B1: soluble hIL-13Rα1 (ECD) (receptor)
chain: GGGGAAPTETQPPVTNLSVSVENLCTVIWTWNPPEGASSNCSLWYFSHFGDKQDKKIAPETRRSIEVPLNERICLQVGSQCSTNESEKPSILVEKCISPPEGDPESAVTELQCIWHNLSYMKCSWLPGRNTSPDTNYTLYYWHRSLEKIHQCENIFREGQYFGCSFDLTKVKDSSFEQHSVQIMVKDNAGKIKPSFNIVPLTSRVKPDPPHIKNLSFHNDDLYVQWENPQNFISRCLFYEVEVNNSQTETHNVFYVQEAKCENPEFERNVENTSCFMVPGVLPDTLNTVRIRVKTNKLCYEDDKLWSNWSQEMSIGKKRNST
notes: also called immobilized hIL-13Rα1 (ECD)
B2: chimeric human IL-13Rα1-Fc (Fc fusion)
chain: B1 chain
notes: Bought (R & D Systems); Extracellular domain of IL-13Rα1 fused to Fc of human IgG; Expressed as preformed disulphide-bonded dimer; also called hIL-13Rα1-Fc; chimeric human receptor; not shown: Fc portion of human IgG
B3: chimeric mouse IL-13Rα1-Fc (Fc fusion, UniProt O09030 26-340, looked up)
chain: ATEVQPPVTNLSVSVENLCTIIWTWSPPEGASPNCTLRYFSHFDDQQDKKIAPETHRKEELPLDEKICLQVGSQCSANESEKPSPLVKKCISPPEGDPESAVTELKCIWHNLSYMKCSWLPGRNTSPDTHYTLYYWYSSLEKSRQCENIYREGQHIACSFKLTKVEPSFEHQNVQIMVKDNAGKIRPSCKIVSLTSYVKPDPPHIKHLLLKNGALLVQWKNPQNFRSRCLTYEVEVNNTQTDRHNILEVEEDKCQNSESDRNMEGTSCFQLPGVLADAVYTVRVRVKTNKLCFDDNKLWSDWSEAQSIGKEQNST
notes: extracellular domain; Bought (R & D Systems); Preformed disulphide-bonded dimer; also called mIL-13Rα1-Fc; chimeric mouse receptor; not shown: Fc portion of human IgG
B4: CDR-grafted 1D9 Fab (Fab, V domains shown)
VH: EVQLVESGGGLVQPGGSLRLSCAASGFTFSGYGMSWVRQAPGKGLEWVATISGLGGYTYYPDSVKGRFTISRDNSKNTLYLQMNSLRAEDTAVYYCARRFYGDYVGAMDYWGQGTLVTVSS
VL: DIQMTQSPSSLSASVGDRVTITCRSSKSLLHSNGITYLYWYQQKPGKAPKLLIYQMSNLASGVPSRFSGSGSGTDFTLTISSLQPEDFATYYCAQNLELPFTFGQGTKVEIKR
B5: mouse IL-13 (ligand, UniProt P20109 21-131, looked up)
chain: GPVPRSVSLPLTLKELIEELSNITQDQTPLCNGSMVWSVDLAAGGFCVALDSLTNISNCNAIYRTQRILHGLCNRKAPTTVSSLPDTKIEVAHFITKLLSYTKQLFRHGPF

Experiment [1] addresses T1, mouse-human chimeric 1D9 Fab (human, UniProt P01857 1-103 = IgG part; P01834 1-107, limits assumed). In words: Biosensor competition assay: soluble chimeric 1D9 Fab on immobilized hIL-13Rα1 (ECD), competed by titrated soluble hIL-13Rα1 (ECD). The protocol:
(§1) FIGS. 11A and 11B are graphical representations of binding affinities of the chimeric and CDR-grafted Fab fragment. […] (B) Biosensor competition assay of soluble 1D9 chimeric or CDR-grafted Fab binding to immobilized hIL-13Rα1 (ECD) competed by soluble hIL-13Rα1 (ECD). Fold-difference in affinity is calculated from (IC₅₀/IC₅₀).

In experiment [2] the target is B4. Put plainly: Biosensor competition assay: soluble CDR-grafted 1D9 Fab on immobilized hIL-13Rα1 (ECD), competed by titrated soluble hIL-13Rα1 (ECD). The protocol: as §1
Experiment [3] concerns the target T1, mouse-human chimeric 1D9 Fab. In words: Competition ELISA: phage displayed chimeric 1D9 Fab on plate bound hIL-13Rα1-Fc (ECD) (2.5 µg/ml), competed by titrated soluble hIL-13Rα1 (ECD). In general terms: ELISA stands for enzyme-linked immunosorbent assay.
The target of experiment [4] is B4. In words: Competition ELISA: phage displayed CDR-grafted 1D9 Fab on plate bound hIL-13Rα1-Fc (ECD) (2.5 µg/ml), competed by titrated soluble hIL-13Rα1 (ECD).
Experiment [5] has as its target B4. In words: Biosensor competition assay: soluble Fabs on immobilized hIL-13Rα1 (ECD), competed by soluble hIL-13Rα1 (ECD); ratio of the IC50 of the CDR-graft to that of the chimera. The protocol: as §1
Experiment [6] concerns the target B4. Put plainly: Competition ELISA: phage displayed Fabs on plate bound hIL-13Rα1-Fc (ECD), competed by soluble hIL-13Rα1 (ECD); ratio of the IC50 of the CDR-graft to that of the chimera.
Experiment [7] deals with T2, IL-13 (species not stated).
T2 construct: the 100-fold comparison
Put plainly: Biosensor, immobilized IL-13.

The experiment “mouse IL-13” concerns the target B5. Put plainly: Biosensor, immobilized IL-13.
The target of a further experiment is human IL-13 (human, UniProt P35225 35-146, limits assumed). In words: Biosensor, immobilized IL-13.
human IL-13, sequence (P35225 35-146 limits assumed): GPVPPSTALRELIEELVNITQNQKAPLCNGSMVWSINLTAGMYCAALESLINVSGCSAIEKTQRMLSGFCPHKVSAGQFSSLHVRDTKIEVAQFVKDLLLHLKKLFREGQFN
The target in the experiment “soluble hIL-13Rα1 (ECD)” is B1. In words: competition ELISA (phage displayed Fab) and Biacore competition (soluble Fab). The method, then:
as §1
The CDR-grafted Fab has similar affinity for IL-13Rα1 as the reference murine-human chimeric Fab.

Experiment [8] deals with B2. Put plainly: ELISA: phage displayed Fab on plate bound hIL-13Rα1-Fc (ECD) (2.5 µg/ml), competed by soluble hIL-13Rα1 (ECD).
Experiment [9] deals with B2. In words: Biosensor, immobilized mouse IL-13, chimeric receptor in solution. An excerpt: (§2) A qualitative comparison of sensorgrams obtained in this study to data obtained previously with monomeric receptor protein, indicated a substantial improvement in binding kinetics. This improvement is attributed to a much slower off-rate for the dimeric form, compared with the monomeric form, of the receptor. To further quantify this interaction a complete dose-response analysis using both human and mouse chimeric receptor proteins and immobilized human and mouse IL-13 was undertaken.

In experiment [10] the target is B3. The description is as above.
Source text: as §2

T1 sequence (VH, as listed by the source limits assumed, chain 1 of 2): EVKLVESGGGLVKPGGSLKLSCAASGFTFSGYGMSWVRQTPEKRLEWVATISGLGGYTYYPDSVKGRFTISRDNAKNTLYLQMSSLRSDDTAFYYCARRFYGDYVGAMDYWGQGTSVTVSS
T1 sequence (VL, as listed by the source limits assumed, chain 2 of 2): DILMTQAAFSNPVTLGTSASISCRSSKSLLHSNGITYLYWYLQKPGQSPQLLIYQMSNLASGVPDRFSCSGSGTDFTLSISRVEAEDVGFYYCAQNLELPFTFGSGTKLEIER

For B1, the IC50 in experiment [1] stood at 6.66 nM; in the experiment with CDR-grafted 1D9 Fab [2] it was 9.61 nM; in experiment [3], 0.045 µg/mL; in the experiment with CDR-grafted 1D9 Fab [4], 0.127 µg/mL. In addition, the “fold difference in affinity (CDR-graft against Chimera, IC50/IC50)” value in the experiment with CDR-grafted 1D9 Fab [5] was around 1.5 fold; with CDR-grafted 1D9 Fab [6] it was around 3 fold.

Consider B2, for which, in experiment [7], the “fold increase in affinity compared with the monomeric form of the receptor” value came out at 100 fold.

In the case of B3, the “fold greater affinity compared with the chimeric human receptor” value with mouse IL-13 and with human IL-13 was around 10 fold in each case.

As for B4, the binding result (with soluble hIL-13Rα1 (ECD); in [8]) was “binds” throughout.

With B5, the Kd worked out at 15.1 nM in experiment [9] and 0.536 nM in experiment [10].
